Drawing on paper PMC6697747, this text covers degradation_or_half_life and localisation_or_trafficking for 9 substances.

Data set [1] is described as follows: cycloheximide chase, western blot. The following applies: glycan lost; control: NRP1-WT.
The nature of data set [2]: confocal, Met co-internalisation with NRP1, HT29. The conditions noted are these: glycan lost; control: NRP1-WT.
A short description of data set [3]: confocal, EEA1/Rab7 co-localisation, 10% FBS medium. The conditions noted are these: glycan lost; control: NRP1-WT.
Data set [4] is described as follows: confocal, surface delivery; 24 h transient or serum-free. The conditions noted are these: glycan lost; control: NRP1-WT.
A short description of data set [5]: confocal, β1-integrin co-internalisation with NRP1, HT29. The following applies: glycan lost; control: NRP1-WT.
The nature of data set [6]: confocal, HGF-stimulated endocytosis after serum starvation. The following applies: glycan lost; control: NRP1-WT.
The nature of data set [7]: confocal, HT29 NRP1-WT cells, 24 h treatment. The following applies: control: DMSO.

Regarding Neuropilin-1 (NRP1): N150Q, in data set [1], the degradation_or_half_life result is given as “increases”. Besides, the localisation_or_trafficking result is listed as “increases” in data set [2]; “changes” in data set [3]; “no change” in data set [4]; “increases” in data set [5]; “increases” in data set [6].
Consider Neuropilin-1 (NRP1): N150Q/N261Q, for which the degradation_or_half_life entry in data set [1] is recorded as “increases”. The localisation_or_trafficking result in data set [3] is “changes”.
As for Neuropilin-1 (NRP1): N261Q, in data set [1], the degradation_or_half_life entry is “increases”. For the same substance, the localisation_or_trafficking result in data set [2] is on record as “increases”; in data set [3] it was “changes”; in data set [4], “no change”; in data set [5], “increases”; in data set [6], “increases”.
For Neuropilin-1 (NRP1): N300Q, the degradation_or_half_life result in data set [1] is “no change”. The localisation_or_trafficking result in data set [3] and in data set [6] was “no change” throughout.
For the substance Neuropilin-1 (NRP1): N522Q, the degradation_or_half_life result in data set [1] was “no change”. Further, the localisation_or_trafficking result in data set [3] and in data set [6] was “no change” in each case.
For the substance Neuropilin-1 (NRP1): N842Q, the degradation_or_half_life entry in data set [1] is reported as “no change”. Besides, the localisation_or_trafficking entry in data set [3] and in data set [6] was “no change” in each case.
As to Neuropilin-1 (NRP1): S612A, in data set [1], the degradation_or_half_life entry is given as “no change”. Also, the localisation_or_trafficking result in data set [3] and in data set [6] was “no change” throughout.
On to Neuropilin-1 (NRP1): swainsonine, for which, in data set [7] (glycan changed form), the localisation_or_trafficking result is recorded as “changes”.
With Neuropilin-1 (NRP1): tunicamycin, in data set [7] (glycan lost), the localisation_or_trafficking result is “changes”.
